The values that follow come from the supplement of paper PMC7877785.

± gives the uncertainty stated by the source.

A short description of this data set: self-splicing fitness, log relative to wild type (ln ratio); higher = more splicing; Tetrahymena group I intron in knt gene, E. coli kanamycin selection, DiMSum; sequences stand for … in CUCUCU…GGAGGGAAAAGUUAUCAGGCAUGCACCUGGUAGCUAGUCUUUAAACCAAUAGAUUGCAUCGGUUUAAAAGGCAAGACCGUCAAAUUGCGGGAAAGGGGUCAACAGCCGUUCAGUACCAAGUCUCAGGGGAAACUUUGAGAUGGCCUUGCAAAGGGUAUGGUAAUAAGCUGACGGACAUGGUCCUAACCACGCAGCCAAGUCCUAAGUCAACAGAUCUUCUGUUGAUAUGGAUGCAGUUCACAGACUAAAUGUCGGUCGGGGAAGAUGUAUUCUUCUCAUAAGAUAUAGUCGGACCUCUCCUUAAUGGGAGCUAGCGGAUGAAGUGAUGCAACACUGGAGCCGCUGGGAACUAAUUUGUAUGCGAAAGUAUAUUGAUUAGUUUUGGAGUACUCGUGGUCG
The essentials: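 Fitness was computed with DiMSum as the error-weighted combination of replicate fold changes, kanamycin versus none, each normalised to wild type. The library randomised all eight intron nucleotides of the P1ex region, with the intron placed in the knt kanamycin-resistance gene on pET-22b(+) in E. coli BL21(DE3). Six replicate transformations were grown overnight at 37°C or 30°C on LB agar with or without 25 μg/mL kanamycin, plus 100 μg/mL carbenicillin, 50 μM IPTG and 0.2% rhamnose. Pooled colonies were amplicon-sequenced on an Illumina HiSeq 2500.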

As to CGUCAGCAAUAUUACGACGA, the “self-splicing fitness (ln)” value is -1.34 ± 0.2 (30 °C) and -1.2 ± 0.21 (37 °C). The like results for AGCCAGCAAUAUUACGUAUA were, in that order, -3.4 ± 0.14 and -2.69 ± 0.17. With GCAUAGCAAUAUUACGCGCG, the “self-splicing fitness (ln)” value is -1.06 ± 0.079 (30 °C) and -0.259 ± 0.092 (37 °C). Turning to GGGUAGCAAUAUUACGUACU, the “self-splicing fitness (ln)” value runs as follows: (30 °C) -2.25 ± 0.4; (37 °C) -1.43 ± 0.38. For the sequence GAAGAGCAAUAUUACGGAGA, the “self-splicing fitness (ln)” value runs as follows: (30 °C) -3.22 ± 0.31; (37 °C) -1.88 ± 0.32. AUCGAGCAAUAUUACGAACU: the “self-splicing fitness (ln)” value by setting is: (30 °C) -1.06 ± 0.17; (37 °C) -0.725 ± 0.19. Consider CGGAAGCAAUAUUACGAGUC, for which the “self-splicing fitness (ln)” value was -2.83 ± 0.22 (30 °C) and -2.39 ± 0.31 (37 °C). The like results for CCAGAGCAAUAUUACGUAAU were, in that order, -3.66 ± 0.23 and -3.18 ± 0.3. UACAAGCAAUAUUACGUCCA: the “self-splicing fitness (ln)” value is -1.06 ± 0.086 (30 °C) and -0.297 ± 0.096 (37 °C). Regarding GCGUAGCAAUAUUACGUUCC, the “self-splicing fitness (ln)” value (37 °C) was -2.36 ± 0.49. For AUAGAGCAAUAUUACGGUAU, the “self-splicing fitness (ln)” value runs as follows: (30 °C) -0.341 ± 0.075; (37 °C) -0.0895 ± 0.11. The like results for AGAGAGCAAUAUUACGGAAC were, in that order, -2.74 ± 0.38 and -1.83 ± 0.4. Regarding CAUGAGCAAUAUUACGAGGG, the “self-splicing fitness (ln)” value is, setting by setting: (30 °C) -3.79 ± 0.22; (37 °C) -1.03 ± 0.14. Consider UUGUAGCAAUAUUACGUCGU, for which the “self-splicing fitness (ln)” value is, setting by setting: (30 °C) -3.78 ± 0.26; (37 °C) -2.44 ± 0.2. As to GGAUAGCAAUAUUACGGUAU, the “self-splicing fitness (ln)” value was -1.48 ± 0.084 (30 °C) and -0.924 ± 0.09 (37 °C). For the sequence GAUGAGCAAUAUUACGGGCG, the “self-splicing fitness (ln)” value is -3.36 ± 0.39 (30 °C) and -1.45 ± 0.26 (37 °C).

In the case of UUCUAGCAAUAUUACGGAAU, the “self-splicing fitness (ln)” value (30 °C) was -4.1 ± 0.39 and the “self-splicing fitness (ln)” value (37 °C) was -1.91 ± 0.33. Take CGGGAGCAAUAUUACGUAAG: the “self-splicing fitness (ln)” value is -1.46 ± 0.17 (30 °C) and -0.321 ± 0.18 (37 °C). Consider CAUUAGCAAUAUUACGUAGA, for which the “self-splicing fitness (ln)” value runs as follows: (30 °C) -0.475 ± 0.11; (37 °C) -1.51 ± 0.2. With CUCCAGCAAUAUUACGGACA, the “self-splicing fitness (ln)” value (30 °C) was -0.816 ± 0.14 and the “self-splicing fitness (ln)” value (37 °C) was -0.868 ± 0.15. As for UACGAGCAAUAUUACGAUUA, the “self-splicing fitness (ln)” value is, setting by setting: (30 °C) -1.13 ± 0.14; (37 °C) -0.74 ± 0.12. As for AAUCAGCAAUAUUACGACUC, the “self-splicing fitness (ln)” value is, setting by setting: (30 °C) -0.0136 ± 0.086; (37 °C) 0.129 ± 0.11. For the sequence AGGGAGCAAUAUUACGUACG, the “self-splicing fitness (ln)” value by setting is: (30 °C) -3.78 ± 0.4; (37 °C) -2.2 ± 0.42. Regarding UUAUAGCAAUAUUACGCCUC, the “self-splicing fitness (ln)” value reads like this: (30 °C) -2.77 ± 0.39; (37 °C) -1.59 ± 0.3.

With UGUAAGCAAUAUUACGUGUG, the “self-splicing fitness (ln)” value is -1.04 ± 0.085 (30 °C) and -0.237 ± 0.095 (37 °C). The like results for UAGGAGCAAUAUUACGGCUU were, in that order, -4.37 ± 0.28 and -3.13 ± 0.4. In the case of UCGAAGCAAUAUUACGUUUG, the “self-splicing fitness (ln)” value reads like this: (30 °C) -2.67 ± 0.13; (37 °C) -1.88 ± 0.15.

As for CCUUAGCAAUAUUACGUGAA, the “self-splicing fitness (ln)” value (30 °C) was -4.2 ± 0.24 and the “self-splicing fitness (ln)” value (37 °C) is -3.37 ± 0.28. On to ACGGAGCAAUAUUACGGGGU, for which the “self-splicing fitness (ln)” value was -3.65 ± 0.21 (30 °C) and -1.45 ± 0.21 (37 °C).

Take GGCCAGCAAUAUUACGGCGA: the “self-splicing fitness (ln)” value was 0.0969 ± 0.095 (30 °C) and 0.581 ± 0.11 (37 °C).

Consider CUACAGCAAUAUUACGCUUC, for which the “self-splicing fitness (ln)” value (37 °C) is -2.88 ± 0.44. As to AUACAGCAAUAUUACGUUAA, the “self-splicing fitness (ln)” value runs as follows: (30 °C) -3.26 ± 0.18; (37 °C) -1.41 ± 0.11. In the case of CGAUAGCAAUAUUACGCACA, the “self-splicing fitness (ln)” value (30 °C) is -0.708 ± 0.088 and the “self-splicing fitness (ln)” value (37 °C) was -0.0385 ± 0.12.

Turning to UAAGAGCAAUAUUACGCCAU, the “self-splicing fitness (ln)” value was -2.59 ± 0.46 (30 °C) and -1.46 ± 0.38 (37 °C). As to GUACAGCAAUAUUACGUGGG, the “self-splicing fitness (ln)” value (30 °C) was -3.76 ± 0.13 and the “self-splicing fitness (ln)” value (37 °C) was -3.18 ± 0.14. GCGAAGCAAUAUUACGAAAA: the “self-splicing fitness (ln)” value (30 °C) is -3.24 ± 0.43. Regarding UGCUAGCAAUAUUACGGUGC, the “self-splicing fitness (ln)” value runs as follows: (30 °C) -3.92 ± 0.27; (37 °C) -2.38 ± 0.26.

For CUUUAGCAAUAUUACGUGUA, the “self-splicing fitness (ln)” value runs as follows: (30 °C) -3.34 ± 0.19; (37 °C) -2.81 ± 0.24.
